Assay results taken from the supplement of paper PMC9170038.

System: MS2 coat protein
Experiment: apparent KD of MS2 coat protein; designed switch direction (-1 OFF switch, 1 ON switch): -1; higher = weaker reporter binding
Outline: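 The buffer was Tris-HCl pH 7.5 with KCl, MgCl2, BSA, DTT, tRNA and Tween-20. In it, SNAP-549-labelled MS2 coat protein was titrated in doubling steps from 0.7 or 1.5 nM to 3 µM over chip-bound RNA switches transcribed by stalled E. coli RNA polymerase on Illumina chips. Apparent KD is the per-design median over clusters of curve fits to normalised fluorescence.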

[1] = Eterna round: R95, input ligand: FMN 200 uM
[2] = Eterna round: R95, input ligand: microRNA oligo, concentration not stated
[3] = Eterna round: R95, input ligand: none
[4] = input ligand: microRNA oligo, concentration not stated

Sequence: GCGAAAGCAAGCAGGUGAAACAUGAGGAUCACCCAUGUCCUCAUUUGCUCGUCUUAUAAGCUAUGCGAAAGCAUAGC [Sensor 3, v1 - 3] (puzzle: Sensor v3, turn-off variant 1)
- apparent KD of MS2 coat protein [1]: 0.0137 µM
- apparent KD of MS2 coat protein [2]: 0.113 µM
- apparent KD of MS2 coat protein [3]: 0.0125 µM

Sequence: GCGCAGCUGGUAGGAUAUUACAGACAGGACUCACGUAAGGGAGCCUGACAUGAGGAUCACCCAUGUAAGAAGGGCCGUGGUAUC [Eternabot solution 11] (Eterna round: R96, puzzle: Exclusion NG 2)
- apparent KD of MS2 coat protein (input ligand: FMN 200 uM): 0.0345 µM
- apparent KD of MS2 coat protein [4]: 0.0198 µM
- apparent KD of MS2 coat protein (input ligand: none): 0.0225 µM

Sequence: GCGCCAUCGUGAGAUGGCGUAACGACAUGAGGAUCACCCAUGUAGGAUAUCGAUUGCUUUGCAGUCGAGAAGGGCAAGGUAAGU [JL ENG3 3.83] (Eterna round: R96, puzzle: Exclusion NG 3)
- apparent KD of MS2 coat protein [4]: 0.0243 µM

Sequence: GCGCCAUCGUGAGAUGGCGUAUUUACAUGAGGAUCACCCAUGUAGGAUAUCGAUUGCUUUGCAGUCGAGAAGGGCAUGAUAAGU [JL ENG3 3.78] (Eterna round: R96, puzzle: Exclusion NG 3)
- apparent KD of MS2 coat protein (input ligand: FMN 200 uM): 0.0725 µM
- apparent KD of MS2 coat protein [4]: 0.0373 µM
- apparent KD of MS2 coat protein (input ligand: none): 0.0545 µM

Sequence: GCGCCAUCGUGAGAUGGCGUUUCGACAUGAGGAUCACCCAUGUAGGAUAUCGAUUGCUUUGCAGUCGAGAAGGGCGUGAUAAGU [JL ENG3 3.72] (Eterna round: R96, puzzle: Exclusion NG 3)
- apparent KD of MS2 coat protein (input ligand: FMN 200 uM): 0.104 µM
- apparent KD of MS2 coat protein [4]: 0.0744 µM
- apparent KD of MS2 coat protein (input ligand: none): 0.0982 µM

Sequence: GCGCUGUCAGGAUAUCGCGCGCGCGCGGAAAUGUGUGUGUGUGAGAAGGGACAUGAGGAUCACCCAUGUGGUGU [-28.5, -27.5 kcal, A 20%, 6-6bis] (Eterna round: R97, puzzle: Exclusion 4)
- apparent KD of MS2 coat protein (input ligand: FMN 200 uM): 0.213 µM
- apparent KD of MS2 coat protein (input ligand: none): 0.583 µM

Sequence: GCGCUGUCAGGAUAUGUGUGUGUGUGUGAAAGCGCGCGCGCGCAGAAGGGACAUGAGGAUCACCCAUGUGGUGU [-31.2, -30.2 kcal, A 20%, 6bis-6bis] (Eterna round: R97, puzzle: Exclusion 4)
- apparent KD of MS2 coat protein (input ligand: FMN 200 uM): 0.0787 µM
- apparent KD of MS2 coat protein (input ligand: none): 0.265 µM

Sequence: GCGGACUAGAUCGUGAGAUCUGAGACAUGAGGAUCACCCAUGUAGGAUAUCGAUUCGAAACGAAUCGAGAAGGGCAUAGUCCGC [JL denovo 8] (Eterna round: R96, puzzle: Exclusion NG 3)
- apparent KD of MS2 coat protein (input ligand: FMN 200 uM): 0.0231 µM
- apparent KD of MS2 coat protein [4]: 0.016 µM
- apparent KD of MS2 coat protein (input ligand: none): 0.022 µM

Sequence: GCGGUAUUCCCUGGAGUACCAUACAUGAGGAUCACCCAUGUAUAGGAUAUUGCAGGAGACAGCUGCGAGAAGGGUACAGGGUGU [Dierceza] (Eterna round: R96, puzzle: Exclusion NG 3)
- apparent KD of MS2 coat protein (input ligand: FMN 200 uM): 0.0266 µM
- apparent KD of MS2 coat protein [4]: 0.0144 µM
- apparent KD of MS2 coat protein (input ligand: none): 0.0159 µM

Sequence: GCGUGAAGGCAGGAUAUAAGAAAAGAAAGAAAAUUAGAAGGGCCGACAUGAGGAUCACCCAUGUGGGCAUGAUC [Xeorusza] (Eterna round: R97, puzzle: Exclusion 6)
- apparent KD of MS2 coat protein (input ligand: FMN 200 uM): 0.0338 µM
- apparent KD of MS2 coat protein (input ligand: none): 0.0159 µM

Sequence: GCGUGUGCCUAGGAUAUUGGGAAUAUGCAGAAACGAGAAGGAGGCACAUGAGGAUCACCCAUGUGAUGAAAAGA [Teesedri] (puzzle: Exclusion 6)
- apparent KD of MS2 coat protein [1]: 0.0167 µM
- apparent KD of MS2 coat protein [2]: 0.0456 µM
- apparent KD of MS2 coat protein [3]: 0.0617 µM

Sequence: GCUAGAGCAGGAUAUCUAGAUCCACACAUGAGGAUCACCCAUGUACGGUCGAAAGACCGAAGAGAAGGGCUCUAGC [Omei Ex5 E12] (Eterna round: R97, puzzle: Exclusion 5)
- apparent KD of MS2 coat protein (input ligand: FMN 200 uM): 0.0985 µM
- apparent KD of MS2 coat protein (input ligand: none): 0.067 µM

Sequence: GCUAGGAAUGUCAGGAUAUGCUGAUCCUUGGAUCAGCAGAAGGGACAUGAGGAUCACCCAUGUGCUAACCUAGC [Mat - Exclusion 4 - JL Mod - D6] (Eterna round: R97, puzzle: Brourd's mod of Exclusion 4)
- apparent KD of MS2 coat protein (input ligand: FMN 200 uM): 0.177 µM
- apparent KD of MS2 coat protein (input ligand: none): 0.0308 µM

Sequence: GCUCUUGGGCAAGGAUAUCCUGCGCGGUUCCGGUUCGUGUCUGUCACAUGAGGAUCACCCAUGUGGGAGAAGGUGCCUGCGGUG [Design 74] (Eterna round: R96, puzzle: Exclusion NG 2)
- apparent KD of MS2 coat protein (input ligand: FMN 200 uM): 0.0286 µM
- apparent KD of MS2 coat protein [4]: 0.0123 µM
- apparent KD of MS2 coat protein (input ligand: none): 0.0159 µM

Sequence: GCUGGUCAAGGAUAUACAUGAGGAUCACCCAUGUGGUCACGUGACGAUAGUCACGAAUGUAGAAGGUGACCAGC [E3/3-C1] (Eterna round: R97, puzzle: Exclusion 3)
- apparent KD of MS2 coat protein (input ligand: FMN 200 uM): 0.0511 µM
- apparent KD of MS2 coat protein (input ligand: none): 0.26 µM

Sequence: GCUGGUCGAGGAUAUACAUGAGGAUCACCCAUGUGGUCACGUGACGAUAGUCACGAAUGUAGAAGGCGACCAGC [E3/3-A1] (Eterna round: R97, puzzle: Exclusion 3)
- apparent KD of MS2 coat protein (input ligand: FMN 200 uM): 0.0669 µM
- apparent KD of MS2 coat protein (input ligand: none): 0.161 µM

Sequence: GCUGGUCGAGGAUAUGCAUACACUGGAUACAGUGGAAGGUCACAUGAGGAUCACCCAUGUAGAAGGCGACCAGC [EX2 #35] (Eterna round: R97, puzzle: Exclusion 2)
- apparent KD of MS2 coat protein (input ligand: FMN 200 uM): 0.122 µM
- apparent KD of MS2 coat protein (input ligand: none): 0.0351 µM

Sequence: GCUUCGUCUGUGGGUGGUGACAUGAGGAUCACCCAUGUUUUGCUCGUCUUGUGCCGGGCCCGGCGCCCGGGCCCGGC [-38.7, -63.8, A 8%] (Eterna round: R97, puzzle: Sensor, turn-off variant 1)
- apparent KD of MS2 coat protein (input ligand: FMN 200 uM): 0.721 µM
- apparent KD of MS2 coat protein (input ligand: none): 0.955 µM

Sequence: GCUUGACGAGGAUAUGCAUACACUGGAUACAGUGGAAGGUCACAUGAGGAUCACCCAUGUAGAAGGCGUCGAGC [EX2 #40] (Eterna round: R97, puzzle: Exclusion 2)
- apparent KD of MS2 coat protein (input ligand: FMN 200 uM): 0.123 µM
- apparent KD of MS2 coat protein (input ligand: none): 0.0354 µM

Sequence: GCUUGUCGAGGAUAUGCAUACACUGGAUACAGUGGAAGGUCACAUGAGGAUCACCCAUGUAGAAGGCGACGAGC [EX2 #39] (Eterna round: R97, puzzle: Exclusion 2)
- apparent KD of MS2 coat protein (input ligand: FMN 200 uM): 0.121 µM
- apparent KD of MS2 coat protein (input ligand: none): 0.0418 µM

Sequence: GCUUGUCUUUAGGAUAUCGUGAGGCCCUUCAUACGAGAAGGAAAGACAUGAGGAUCACCCAUGUCGGGUAUCAC [Eternabot (L1) Solution 28] (Eterna round: R97, puzzle: Exclusion 6)
- apparent KD of MS2 coat protein (input ligand: FMN 200 uM): 0.0518 µM
- apparent KD of MS2 coat protein (input ligand: none): 0.0208 µM

Sequence: GCUUGUGGGCAAGGAUAUCCUACGUUGUUCUGGUUCGUGUCUGUCACAUGAGGAUCACCCAUGUGGGAGAAGGUGCAUUUGGGU [Design 59] (Eterna round: R96, puzzle: Exclusion NG 2)
- apparent KD of MS2 coat protein (input ligand: FMN 200 uM): 0.0179 µM
- apparent KD of MS2 coat protein [4]: 0.0138 µM
- apparent KD of MS2 coat protein (input ligand: none): 0.018 µM

Sequence: GGAAAGCAAGGAUAUACAAGGAAACGAUGGAAAGUAGAGAGACAUGAGGAUCACCCAUGUAGAAGGUGCGAGAG [JR_Exclu2_Sub037] (puzzle: Exclusion 2)
- apparent KD of MS2 coat protein [1]: 0.0369 µM
- apparent KD of MS2 coat protein [2]: 0.0249 µM
- apparent KD of MS2 coat protein [3]: 0.0253 µM

Sequence: GGAAAGUGAGGAUAUGGUAAUUUAAUUAUUAAUUAAUUAAUCCAGAAGGCACAUGAGGAUCACCCAUGUAAAGG [Mat - Exclusion 4 - D92] (puzzle: Exclusion 4)
- apparent KD of MS2 coat protein [2]: 0.0307 µM

Sequence: GGAACUGGAGGAUAUACAUGAGGAUCACCCAUGUAUAGAUAUGGUUAUUAGCCUCAUAGUAGAAGGUUAGUGGC [EX3 C.4] (Eterna round: R97, puzzle: Exclusion 3)
- apparent KD of MS2 coat protein (input ligand: FMN 200 uM): 0.0216 µM
- apparent KD of MS2 coat protein (input ligand: none): 0.0201 µM

Sequence: GGACCGUAAGGAUAUGGCACGAAUCGACAGUCGAUCUCGAGCUAGAAGGUACAUGAGGAUCACCCAUGUCCGUU [Eternabot (L1) Solution 13] (Eterna round: R97, puzzle: Exclusion 4)
- apparent KD of MS2 coat protein (input ligand: FMN 200 uM): 0.0254 µM
- apparent KD of MS2 coat protein (input ligand: none): 0.0192 µM

Sequence: GGAGGGAAAGUGAGGAUAUCCGGAGGGAAACCUCCGGAGAAGGCACAUGAGGAUCACCCAUGUAAGGAAGGAGG [AK-MS2ROC-r4-Bmoexclusion4-1.1] (Eterna round: R97, puzzle: Brourd's mod of Exclusion 4)
- apparent KD of MS2 coat protein (input ligand: FMN 200 uM): 0.203 µM
- apparent KD of MS2 coat protein (input ligand: none): 0.135 µM

Sequence: GGAUAAGGCGAGGAUAUCCAGAAACCCGACAAAGGAGAAGGCGCAACAUGAGGAUCACCCAUGUGGGUGCAUGU [Xeaormara] (puzzle: Exclusion 6)
- apparent KD of MS2 coat protein [1]: 1.08 µM
- apparent KD of MS2 coat protein [2]: 0.254 µM
- apparent KD of MS2 coat protein [3]: 0.28 µM

Sequence: GGAUCGAAAGUGAGGAUAUACCUAUGGAUACAUAGGUAGAAGGCACAUGAGGAUCACCCAUGUUCCUACGGUCC [Eli bmx4 4.10] (Eterna round: R97, puzzle: Brourd's mod of Exclusion 4)
- apparent KD of MS2 coat protein (input ligand: FMN 200 uM): 0.114 µM
- apparent KD of MS2 coat protein (input ligand: none): 0.0184 µM

Sequence: GGAUCGAAUGUGAGGAUAUGCUGGUCCUUGGAUCAGCAGAAGGCACAUGAGGAUCACCCAUGUCCAAACGGUCC [Eli bmx4 4.44] (Eterna round: R97, puzzle: Brourd's mod of Exclusion 4)
- apparent KD of MS2 coat protein (input ligand: FMN 200 uM): 0.352 µM
- apparent KD of MS2 coat protein (input ligand: none): 0.525 µM
